Test results published in paper PMC8693863.

Target: Myomaker (MYMK) (mouse (endogenous in primary myoblasts)) (UniProt Q9D1N4)
Experiment: proximity ligation; Duolink PLA on primary mouse myoblasts fixed with 4% PFA, 24 h after DMSO (Ctrl) or ERKi; antibody pairs anti-TMEM8C + anti-CaMKII, or anti-CaMKII + anti-Rac1; mean fluorescent intensity normalized to nuclei number per field

UniProt Q9D1N4, sequence (Q9D1N4 whole entry): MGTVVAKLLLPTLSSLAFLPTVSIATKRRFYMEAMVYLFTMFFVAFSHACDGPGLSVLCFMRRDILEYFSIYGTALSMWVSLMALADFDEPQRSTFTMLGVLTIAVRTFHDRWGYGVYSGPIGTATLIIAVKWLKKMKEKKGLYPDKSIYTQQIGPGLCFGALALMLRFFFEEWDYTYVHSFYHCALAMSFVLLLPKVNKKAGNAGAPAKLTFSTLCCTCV

- fold increase of PLA signal mean fluorescent intensity, ERKi against DMSO control: 2.9 fold
Substance: CaMKII (from UniProt Q6PHZ2 1-499) (natural protein)
